From US20110142851A1 (EMERGENT PRODUCT DEVELOPMENT SEATTLE, published 2011) come the findings set out here.

The Kd is a measure of binding affinity in units of concentration. Low values mean tighter binding, high ones weaker binding.

B1: hu HIL6 AFH monomer (other)
chain: PEEPQLSCFRKSPLSNVVCEWGPRSTPSLTTKAVLLVRKFQNSPAEDFQEPCQYSQESQKFSCQLAVPEGDSSFYIVSMCVASSVGSKFSKTQTFQGCGILQPDPPANITVTAVARNPRWLSVTWQDPHSWNSSFYRLRFELRYRAERSKTFTTWMVKDLQHHCVIHDAWSGLRHVVQLRAQEEFGQGEWSEWSPEAMGTPWTESRSPPAGGGSDVAAPHRQPLTSSERIDKQIRYILDGISALRKETCNKSNMCESSKEALAENNLNLPKMAEKDGCFQSGFNEETCLVKIITGLLEFEVYLEYLQNRFESSEEQARAVQMSTKVLIQFLQKKAKNLDAITTPDPTTNASLLTKLQAQNQWLQDMTTHLILRSFKEFLQSSLRALRQM
B3: sIL6R Fc dimer (Fc fusion, UniProt P08887 20-358, looked up)
chain: LAPRRCPAQEVARGVLTSLPGDSVTLTCPGVEPEDNATVHWVLRKPAAGSHPSRWAGMGRRLLLRSVQLHDSGNYSCYRAGRPAGTVHLLVDVPPEEPQLSCFRKSPLSNVVCEWGPRSTPSLTTKAVLLVRKFQNSPAEDFQEPCQYSQESQKFSCQLAVPEGDSSFYIVSMCVASSVGSKFSKTQTFQGCGILQPDPPANITVTAVARNPRWLSVTWQDPHSWNSSFYRLRFELRYRAERSKTFTTWMVKDLQHHCVIHDAWSGLRHVVQLRAQEEFGQGEWSEWSPEAMGTPWTESRSPPAENEVSTPMQALTTNKDDDNILFRDSANATSLPVQD
notes: not shown: Fc

For experiment [1], the target named is T1, human gp130-Fc chimera (R&D Systems) (human, UniProt P40189 23-619).
T1 construct: Bought product; also called Human gp130-human IgG Fc fusion protein; soluble gp130; not shown: human IgG Fc
T1 sequence (looked up): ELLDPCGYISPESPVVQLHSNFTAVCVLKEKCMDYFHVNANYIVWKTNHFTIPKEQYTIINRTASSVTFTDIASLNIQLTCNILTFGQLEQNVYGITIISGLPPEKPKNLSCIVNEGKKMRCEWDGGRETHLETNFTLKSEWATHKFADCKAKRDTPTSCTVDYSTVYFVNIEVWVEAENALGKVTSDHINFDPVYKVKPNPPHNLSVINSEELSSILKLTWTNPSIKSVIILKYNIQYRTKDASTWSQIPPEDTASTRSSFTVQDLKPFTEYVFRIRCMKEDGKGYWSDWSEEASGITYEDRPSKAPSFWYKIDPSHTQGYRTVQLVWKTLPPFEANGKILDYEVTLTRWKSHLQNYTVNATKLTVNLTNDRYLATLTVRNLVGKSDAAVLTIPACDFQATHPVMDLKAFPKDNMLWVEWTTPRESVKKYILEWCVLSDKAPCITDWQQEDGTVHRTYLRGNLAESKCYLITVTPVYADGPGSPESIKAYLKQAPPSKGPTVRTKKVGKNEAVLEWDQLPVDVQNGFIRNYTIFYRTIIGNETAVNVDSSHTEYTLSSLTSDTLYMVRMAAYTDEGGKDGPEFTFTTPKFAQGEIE
The experiment is described as follows: SPR Biacore T100, binder captured by anti-human Fc. A general note: Surface plasmon resonance follows binding to a sensor surface in real time, without labels.

In experiment [2] the target is T2, hu HIL6 Fc dimer (dimeric human HIL6/mouse IgG Fc fusion protein) (human).
T2 construct: also called human hyper-IL6 (IL6R-IL6-mIgG); dimeric HIL6
T2 chain: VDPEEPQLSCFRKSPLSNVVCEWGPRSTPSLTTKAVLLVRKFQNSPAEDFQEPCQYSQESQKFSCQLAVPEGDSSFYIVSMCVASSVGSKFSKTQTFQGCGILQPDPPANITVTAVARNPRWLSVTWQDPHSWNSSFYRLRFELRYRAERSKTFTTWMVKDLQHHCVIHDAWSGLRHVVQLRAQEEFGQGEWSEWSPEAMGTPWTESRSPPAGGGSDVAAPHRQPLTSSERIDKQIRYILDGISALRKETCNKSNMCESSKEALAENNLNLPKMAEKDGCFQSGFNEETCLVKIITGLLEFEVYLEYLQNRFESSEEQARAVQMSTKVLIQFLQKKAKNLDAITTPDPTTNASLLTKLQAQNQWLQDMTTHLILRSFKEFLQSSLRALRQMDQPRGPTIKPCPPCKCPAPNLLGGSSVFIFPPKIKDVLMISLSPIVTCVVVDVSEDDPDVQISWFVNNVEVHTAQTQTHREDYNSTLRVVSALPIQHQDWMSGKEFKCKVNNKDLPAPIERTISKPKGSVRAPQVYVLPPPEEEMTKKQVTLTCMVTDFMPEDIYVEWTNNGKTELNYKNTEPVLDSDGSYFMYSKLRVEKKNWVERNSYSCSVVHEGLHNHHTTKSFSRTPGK
The experiment is described as follows: SPR Biacore T100, binder captured by anti-human Fc. As for the experimental part:
(§1) Binding affinities and kinetic rate constants of interaction of hyper-IL6 (HIL6; monomer or dimer), and its components IL6 and sIL6R, with different anti-HIL6 binding domains in scFv, SMIP, Xceptor and reverse Xceptor formats were determined using a Biacore® T100 instrument (GE Healthcare, Piscataway, N.J.).
(§2) Anti-HIL6 SMIPS, Xceptors, and reverse Xceptors were captured by a monoclonal mouse anti-human Fc, which was covalently conjugated to a carboxylmethyl dextran (CM4) surface via amines using N-ethyl-N′-(3-dimethylaminopropyl)-carbodiimide hydrochloride and N-hydroxysuccinimide. The unoccupied sites of the activated surface were blocked by ethanolamine. […] In every cycle, three different HIL6 binders were captured on flow cells 2, 3 and 4, while flow cell 1 was used as the reference cell. For each cycle, a single concentration of a single HIL6-related molecule was injected for 150 seconds at 35 microliters per minute, and then allowed to dissociate for 300 seconds. At the end of the cycle, the surface was regenerated gently using 3M MgCl₂, which dissociates protein bound to anti-hFc capture antibody. Multiple cycles were performed to study binding of monomeric or dimeric HIL6 at different concentrations, in the range of 0-100 nM, for each set of three HIL6 binders captured. […] The experiment was performed at 25° C. Signal associated with binding to the reference cell was used to subtract for bulk refractive changes and blank (buffer-only) injections were used to correct for drift and system noise. The kinetic parameters and affinities were determined using BIAevaluation software. Anti-HIL6 scFv molecules were analyzed in the reverse orientation using a dimeric human HIL6/mouse IgG Fc fusion protein captured by an immobilized rabbit polyclonal anti-mouse IgG Fc antibody on the surface and injecting different concentrations of scFv over the surface. For the HIL6 components IL6 (eBioscience, catalog no. 14-8069) and sIL6R, a single 100 nM injection was performed to obtain a qualitative assessment of binding.

The experiment “hu HIL6 AFH monomer” addresses B1. Nature of the experiment: SPR Biacore T100, binder captured by anti-human Fc. As for the experimental part: as §1, §2
The target of the next experiment is T3, recombinant human IL6 (human, UniProt P05231 30-212).
T3 construct: also called rhIL6; IL6 monomer
The experiment is described as follows: SPR Biacore T100, binder captured by anti-human Fc. As for the experimental part: as §1, §2

The experiment “sIL6R Fc dimer” has as its target B3. Nature of the experiment: SPR Biacore T100, binder captured by anti-human Fc. The method, then:
as §1, §2

For experiment [3], the target named is T2, hu HIL6 Fc dimer (dimeric human …). Nature of the experiment: SPR Biacore T100, HIL6-mouse Fc captured by anti-mouse Fc, scFv injected.

For the molecule B1, in experiment [1], the Kd came to 0.68 nM.

B2: TRU(S6)-1013 (Fc fusion)
chain: EVQLLESGGGLVQPGGSLRLSCAASGFTFSGYVMGWVRQAPGKGLEWVSSISPSGGYTLYADSVKGRFTISRDNSKNTLYLQMNSLRAEDTAVYYCARAFSTRWYWGAFDIWGQGTMVTVSSGGGGSGGGGSGGGGSQDIQMTQSPATLSLSPGERATLSCRASQSVRSYLAWYQQKPGQAPRLLIYDASNRATGIPARFSGSGSGTDFTLTITSLQPEDIATYYCQQYDNLPLTFGGGTKVEIKTGEPKSSDKTHTCPPCPAPEAAGAPSVFLFPPKPKDTLMISRTPEVTCVVVDVSHEDPEVKFNWYVDGVEVHNAKTKPREEQYNSTYRVVSVLTVLHQDWLNGKAYACAVSNKALPAPIEKTISKAKGQPREPQVYTLPPSRDELTKNQVSLTCLVKGFYPSDIAVEWESNGQPENNYKTTPPVLDSDGSFFLYSKLTVDKSRWQQGNVFSCSVMHEALHNHYTQKSLSLSPGK
notes: SMIP (scFv - linker - CH2CH3)
B2: the Kd in experiment [2] is 200 nM; with hu HIL6 AFH monomer, 31 nM. The binding result with recombinant human IL6 and in the experiment with sIL6R Fc dimer was “no binding (tested: 100 nM)” in each case.
For B3, the binding result in experiment [1] is recorded as “no binding (tested: 100 nM)”.

B4: TRU(S6)-1029 (Fc fusion)
chain: EVQLLESGGGLVQPGGSLRLSCAASGFTFSSYWMHWVRQAPGKGLEWVSSIYPSGGSTEYADSVKGRFTISRDNSKNTLYLQMNSLRAEDTAVYYCAKGIWFDPWGQGTLVTVSSGGGGSGGGGSGGGGSQDIQMTQSPATLSASVGDRVTITCRSSQRISGYLNWYQQQPGKAPKLLIYAASTLQSGVPSRISGSGSGTDFSLIISSLQPEDVATYYCQQSYSPPFTFGGGTKVEIKTGEPKSSDKTHTCPPCPAPEAAGAPSVFLFPPKPKDTLMISRTPEVTCVVVDVSHEDPEVKFNWYVDGVEVHNAKTKPREEQYNSTYRVVSVLTVLHQDWLNGKAYACAVSNKALPAPIEKTISKAKGQPREPQVYTLPPSRDELTKNQVSLTCLVKGFYPSDIAVEWESNGQPENNYKTTPPVLDSDGSFFLYSKLTVDKSRWQQGNVFSCSVMHEALHNHYTQKSLSLSPGK
notes: SMIP (scFv - linker - CH2CH3)
B4 returned a Kd with hu HIL6 AFH monomer of 180 nM. Besides, the binding result with sIL6R Fc dimer is “no binding (tested: 100 nM)”.

B5: SEQ ID NO: 671 (scFv) (scFv)
scFv: EVQLLESGGGLVQPGGSLRLSCAASGFTFSFYQMHWVRQAPGKGLEWVSGIYPSGGYTKYADSVKGRFTISRDNSKNTLYLQMNSLRAEDTAVYYCARDLGYGSSWYYFDYWGQGTLVTVSSGGGGSGGGGSGGGGSQSALTQPASVSGSPGQSITISCSGTDSDVGGYNHVSWYQQHPGKAPKLIIYDVDHRPSGISNRFSGSKSGNTASLTISGLQAEDEADYYCSSYRSGSTYVFGTGTKVTVL
For B5, the affinity in experiment [3], expressed as Kd, was 1.04 nM.

B6: TRU(S6)-1025 (Fc fusion)
chain: EVQLLESGGGLVQPGGSLRLSCAASGFTFSHYGMHWVRQAPGKGLEWVSSIYPGMTQYADSVKGRFTISRDNSKNTLYLQMNSLRAEDTAVYYCARDRGSGIDAFDIWGQGTMVTVSSGGGGSGGGGSGGGGSQSELTQPPSVSVSPGQTATVSCSGEKLGDRYAWWYQQKAGQSPVLVIYQDTKRPSGVPDRFSGSNSGTSASLVISGPQSEDEADYYCAAWDDSLKGVVFGGGSKLTVLTGEPKSSDKTHTCPPCPAPEAAGAPSVFLFPPKPKDTLMISRTPEVTCVVVDVSHEDPEVKFNWYVDGVEVHNAKTKPREEQYNSTYRVVSVLTVLHQDWLNGKAYACAVSNKALPAPIEKTISKAKGQPREPQVYTLPPSRDELTKNQVSLTCLVKGFYPSDIAVEWESNGQPENNYKTTPPVLDSDGSFFLYSKLTVDKSRWQQGNVFSCSVMHEALHNHYTQKSLSLSPGK
notes: SMIP (scFv - linker - CH2CH3)
B6: the Kd in experiment [2] was 4.4 nM; in the experiment with hu HIL6 AFH monomer, 2.6 nM. Besides, the binding result with recombinant human IL6 is “no binding (tested: 100 nM)”.

B7: SEQ ID NO: 679 (scFv) (scFv)
scFv: EVQLLESGGGLVQPGGSLRLSCAASGFTFSWYLMHWVRQAPGKGLEWVSGIWPSGGHTLYADSVKGRFTISRDNSKNTLYLQMNSLRAEDTAVYYCAREPLLWFGELSYNWFDPWGQGTLVTVSSGGGGSGGGGSGGGGSQDIQMTQSPSSVSASVGDRVTITCRASQGISSWLAWYQQKPGKAPKLLIYAASSLQSGVPSRFSGSGSGTDFTLTISSLQPEDFATYYCQQANSFPLTFGGGTKVEIK
B7: the Kd in experiment [3] was 1.46 nM.
